From patent US20120058906A1 (published 2012)
Positions count from the first letter of the chain named. One block for each binder: values may come before it.

Legend:
[1] = biological target: T1, Recombinant Human DLL4 (R&D Systems Cat#1506-D4/CF) (human, UniProt Q9NR61 27-524); assay: MSD ECL multi-spot plate, antigen immobilized; Fab 1.6 nM; blank spot 449;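 note: blank spot per well as comparator with Hit at signal to blank ratio of 4 or more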
T1 construct: Purchased recombinant protein; also called delta-like protein 4

[2] = biological target: T2, rHuman P-Cadherin/Fc Chimera, CF (R&D Systems Cat#861-PC) (human, UniProt P22223 108-654); assay: as above
T2 construct: Purchased Fc chimera; not shown: Fc portion of the purchased chimera

[3] = biological target: T3, rHuman IGF-1 sR, CF (R&D Systems Cat#391-GR) (human, UniProt P08069 31-932); assay: ECL (MSD Multi-Spot) binding, antigen spotted on plate; Fab 5 nM;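 note: blank spot per well as comparator with Hit at signal to blank ratio of 4 or more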
T3 construct: Bought soluble receptor; also called insulin-like growth factor-1 soluble receptor; IGF-R1

[4] = biological target: T4, rHuman CD44/Fc Chimera, CF (R&D Systems Cat#3660-CD) (human, UniProt P16070 21-220); assay: as above
T4 construct: Bought Fc chimera; Fc part of the bought chimera not given

[5] = biological target: T5, rHuman P-Cadherin/Fc Chimera, CF (R&D Systems Cat#861-PC) (human, UniProt P22223 108-654); assay: as above
T5 construct: Bought Fc chimera; Fc part of the bought chimera not given

[6] = biological target: T6, rHuman Erythropoietin R/Fc Chimera, CF (R&D Systems Cat#963-ER) (human, UniProt P19235 25-250); assay: as above
T6 construct: Bought Fc chimera; also called EPO R/Fc; erythropoietin receptor; Fc part of the bought chimera not given
T6 sequence: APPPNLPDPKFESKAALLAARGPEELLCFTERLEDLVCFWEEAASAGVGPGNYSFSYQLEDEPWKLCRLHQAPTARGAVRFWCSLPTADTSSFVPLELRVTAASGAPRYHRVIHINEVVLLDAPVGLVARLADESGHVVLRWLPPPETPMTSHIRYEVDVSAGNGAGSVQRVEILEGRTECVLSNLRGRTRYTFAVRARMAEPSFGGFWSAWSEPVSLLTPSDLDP

[7] = biological target: T7, rHuman Notch-1/Fc Chimera, CF (R&D Systems Cat#3647-TK) (human, UniProt P46531 19-526); assay: as above
T7 construct: Bought Fc chimera; Fc part of the bought chimera not given

[8] = biological target: T8, rHuman EGF R/Fc Chimera, CF (R&D Systems Cat#344-ER) (human, UniProt P00533 25-645); assay: as above
T8 construct: Bought Fc chimera; also called epidermal growth factor receptor; Fc part of the bought chimera not given

[9] = biological target: T9, rHuman HGF R/c-MET/Fc Chimera, CF (R&D Systems Cat#358-MT/CF) (human, UniProt P08581 25-932); assay: as above
T9 construct: Bought Fc chimera; also called HGF R/Fc; hepatocyte growth factor receptor; Fc part of the bought chimera not given

[10] = biological target: T10, Recombinant Human DLL4 (R&D Systems Cat#1506-D4/CF) (human, UniProt Q9NR61 27-524); assay: as above
T10 construct: Bought recombinant protein; also called delta-like protein 4

[11] = biological target: T11, rHuman ErbB2/Fc Chimera, CF (R&D Systems Cat#1129-ER) (human, UniProt P04626 23-652); assay: as above
T11 construct: Bought Fc chimera; also called human epidermal growth factor 2 receptor; HER2/neu; Fc part of the bought chimera not given

[12] = biological target: T12, rHuman CD44/Fc Chimera, CF (R&D Systems Cat#3660-CD) (human, UniProt P16070 21-220); assay: ECL (MSD multi-spot), antigen on plate, Fab 0.5 nM
T12 construct: Bought Fc chimera; not shown: Fc of the bought chimera

[13] = biological target: T13, rHuman EGF R/Fc Chimera, CF (R&D Systems Cat#344-ER) (human, UniProt P00533 25-645); assay: ECL (MSD multi-spot), antigen on plate, Fab 0.5 nM
T13 construct: Bought Fc chimera; also called ErbB-1; not shown: Fc of the bought chimera

[14] = biological target: T14, rHuman IGF-1 sR (insulin-like growth factor-1 soluble receptor), CF (R&D Systems Cat#391-GR) (human, UniProt P08069 31-932); assay: ECL (MSD multi-spot), antigen on plate, Fab 0.5 nM
T14 construct: Bought soluble receptor; also called IGF-R1

[15] = biological target: T15, rHuman HGF R/c-MET/Fc Chimera, CF (R&D Systems Cat#358-MT/CF) (human, UniProt P08581 25-932); assay: ECL (MSD multi-spot), antigen on plate, Fab 0.5 nM
T15 construct: Bought Fc chimera; also called HGF R/Fc; not shown: Fc of the bought chimera

[16] = biological target: T16, rHuman P-Cadherin/Fc Chimera, CF (R&D Systems Cat#861-PC) (human, UniProt P22223 108-654); assay: ECL (MSD multi-spot), antigen on plate, Fab 0.5 nM
T16 construct: Bought Fc chimera; also called CDH3; not shown: Fc of the bought chimera

[17] = biological target: T17, rHuman Notch-1/Fc Chimera, CF (R&D Systems Cat#3647-TK) (human, UniProt P46531 19-526); assay: ECL (MSD multi-spot), antigen on plate, Fab 0.5 nM
T17 construct: Bought Fc chimera; not shown: Fc of the bought chimera

[18] = biological target: T18, rHuman Erythropoietin R/Fc Chimera, CF (R&D Systems Cat#963-ER) (human, UniProt P19235 25-250); assay: ECL (MSD multi-spot), antigen on plate, Fab 0.5 nM
T18 construct: Bought Fc chimera; also called EPO R/Fc; Epo R; not shown: Fc of the bought chimera
T18 sequence: T6 sequence

[19] = biological target: T19, Recombinant Human DLL4 (R&D Systems Cat#1506-D4/CF) (human, UniProt Q9NR61 27-524); assay: ECL (MSD multi-spot), antigen on plate, Fab 0.5 nM
T19 construct: Bought recombinant protein; also called delta-like protein 4

ECL signal [1]: 1540 ECL signal
ECL signal [2]: 666 ECL signal
B1: Fab VH5-51_IGHD5-18*01>3_IGHJ4*01_G100R & V3-4_IGLJ1*01 (Fab, V domains shown)
VH: EVQLVQSGAEVKKPGESLKISCKGSGYSFTSYWIGWVRQMPGKGLEWMGIIYPGDSDTRYSPSFQGQVTISADKSISTAYLQWSSLKASDTAMYYCARRRYSYGYDYFDYWGQGTLVTVSS
VL: QTVVTQEPSFSVSPGGTVTLTCGLSSGSVSTSYYPSWYQQTPGQAPRTLIYSTNTRSSGVPDRFSGSILGNKAALTITGAQADDESDYYCVLYMGSGISYVFGTGTKVTVL
notes: It was expressed as a Fab: CH1 with tags from Plasmid A and lambda CL from Plasmid E; also called Fab No. 23

ECL signal [3]: 320
ECL signal [4]: 413
ECL signal [5]: 437
ECL signal [6]: 377
ECL signal [7]: 383
ECL signal [8]: 311
ECL signal [9]: 323
ECL signal [10]: 84900
ECL signal [11]: 315
B2: Fab VH1-46_IGHD6-6*01_IGHJ1*01_S102A_S103P_S104F_H111Y & L6_IGKJ1*01 (Fab, V domains shown)
VH: QVQLVQSGAEVKKPGASVKVSCKASGYTFTSYYMHWVRQAPGQGLEWMGIINPSGGSTSYAQKFQGRVTMTRDTSTSTVYMELSSLRSEDTAVYYCAREEYAPFSAEYFQYWGQGTLVTVSS
VL: not shown
notes: Fab made in E. coli; The heavy chain also carries the CH1 with Flag and His tags of Plasmid A, and the light chain the kappa constant region of Plasmid C

ECL signal [12]: 1560 ECL signal
ECL signal [13]: 1750 ECL signal
ECL signal [14]: 1660 ECL signal
ECL signal [15]: 1690 ECL signal
ECL signal [16]: 2630 ECL signal
ECL signal [17]: 1760 ECL signal
ECL signal [18]: 1840 ECL signal
ECL signal [19]: 5150 ECL signal
B3: Fab VH1-46_IGHD6-6*01_IGHJ1*01_S102A_S103P_S104Y_H111Y & L6_IGKJ1*01 (Fab, V domains shown)
VH: B2 VH with F104Y
VL: not shown
notes: Fab made in E. coli; The heavy chain also carries CH1 with Flag and His tags from Plasmid A, and the light chain carries kappa CL from Plasmid C
